Measured values reported in a protein production outcome set (Wang et al. 2014).

test: label from the status in PepcDB records
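Also: failed if final PepcDB status was selected cloned or expressed and not failed if soluble or beyond.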

Protein production, not failed:
MEDFWVQYGDEMLPVIGDFPRKGDYLPSFMLVDDQKHDAALESFSHTPKLIVTLLSVDEDEHAGLLLLRETRRFLDSWPHLKLIVITVDSPSSLARARHEHGLPNIALLSTLRGRDFHKRYGVLITEYPLSGYTSPAIILADAANVVHYSERLANTRDFFDFDAIEKLLQEGEQQAMAAEREAAEARQEQDAEREKGTERLLEKAKLIQDQLNRNGDPGR
MEDLERRQRSQVKTHEVQAHGRISRLIPAEDFGIIETPEGREIYFHRHSVVNSDFDRLTVGTAVRFAEEMGEEGPQASSVRVEGKHHLIGLEHHHHHH
MEEELQHSHCVNCVSRRCMTRPEPGISCDLIGCPLVCGAVFHSCKADEHRLLCPFERVPCLNSDFGCPFTMARNKVAEHLEMCPASV
MEEEMKKKVSRGELGGEAQNCPRCESPNTKFCYYNNYSLSQPRYFCKSCRRYWTKGGTLRNVPVGGGCRRNKRSSSSAFSKNNNNKSINFHTDPLQNPLITGMPPSSFGYDHSIDLNLAFATLQKHHLSSQATTPSFGFGGDLSIYGNSTNDVGIFGGQNGTYNNSLCYGFMSGNGNNNQNEIKMASTLGMSLEGNERKQENVNNNNNNSENPSKVFWGFPWQMTGDSAGVVPEIDPGRESWNGMVSSWNNGLLNTPLV
MEEGGDFDNYYGADNQSECEYTDWKSSGALIPAIYMLVFLLGTTGNGLVLWTVFRSSREKRRSADIFIASLAVADLTFVVTLPLWATYTYRDYDWPFGTFFCKLSSYLIFVNMYASVFCLTGLSFDRYLAIVRPVANARLRLRVSGAVATAVLWVLAALLAMPVMVLRTTGDLENTTKVQCYMDYSMVATVSSEWAWEVGLGVSSTTVGFVVPFTIMLTCYFFIAQTIAGHFRKERIEGLRKRRRLLSIIVVLVVTFALCWMPYHLVKTLYMLGSLLHWPCDFDLFLMNIFPYCTCISYVNSCLNPFLYAFFDPRFRQACTSMLCCGQSRCAGTSHSSSGEKSASYSSGHSQGPGPNMGKGGEQMHEKSIPYSQETLVVD
MEEINKYIQNSSETGGEIYNLIEELFPICRSITGNGVRKTMDIIRKHIPLEIHEVKSGTKVFDWTVPKEWNIKDAYVRNSKGEKVIDFKENNLHVMSYSVPVHKTMTLDELKPYLHTIPGNKDRIPYLTSYYKENWGFSLTQNKFDELCDDDYEVVIDSSLEDGSLTYGEYYIRGELEEEILLTTYTCHPSMCNDNLSGVALITFIAKALSKLKTKYSYRFLFAPETIGSITWLSRNEDKLKNIKMGLVATCVGDAGIKNYKRTKFGDAEIDKIVEKVLMHCGSEYYVADFFPWGSDERQFSSPGINLSVGSLMRSCYGFDGYHTSADNLCYMNKDGLADSYKTYLEVIYTIENNRTYLNLNPKCEPQLGKRGIYRMIGGGSDYPFDEFAMFWVLNMSDGKNSLLDIAYKSGMEFRRIKYAADALYRVELLKLV
MEELFCIGCGIQIQTEDKEKAGFTPAAALKKGMETGELYCQRCFRLRHYNEITDVHITDDEFLRLLHEVGDSDALVVNVIDIFDFNGSIIPGLSRFISGNDVLLVGNKKDILPKSVKDGKVTQWLTERAHEEGLRPLDVMLTSAQNKYAIKDLIGRINELRNGRDVYVVGVTNVGKSTLINAIIQEITGNKDVITTSRFPGTTLDKIEIPLDDGTFIFDTPGIIHRHQMAHYLSPKELKIVSPKKEIKPKTYQLNPEQTLFLGGLARFDFINGERQGFTAFFDNQLELHRTKLAGADAFYDKHVGTLLTPPDKKELTAFPKLVRHEFTIDQKMDIVFSGLGWIRVNGQKDSKAIVAAWAPEGVAVIVRKAIILEHHHHHH
MEELLDILREFRDSRGWLKYHTPKNLAVSISIEVAELLEIFQWTRSSDEEFEVLERRKGEVEEEIADVLIYLLFLCDVAEINPIEAVKRKMEKNERKYPKNRVHEF

Protein production, failed:
MECGVFHTPYMRPGRKDKDTFEYSLLLAAACDKFGYRDFMVGEHGMQAWENIPNPELLIVAAAQITERMRFAPMAHIVPLHNPSTLAIQIGYTSQLLEDRYFLGVGAGSWENEAVLRGQPGDLSEAHPRLMEGLEVMDKVWRQEPFDFEGKYYKAARLDGQIDPGSVASHGEFKVKDGEEYHLTADHSPHGGADGLEIAVTGLSKNSPSHRLAGERGWTPISFYGGSALLRSQWDTYSEAVRSIGGTPQGSRFKIARDVFVAKTDEEAKEKAKNGALGLAWQKYLMPVYQKYRILQGFIDDADHKVDIDDVDLDYLADNVWLCGSPDTVIEKIEKTFDLAGFRYGQLAVNTHDAMDDPEPWIESLRLFATEVVPNVPVEGTHETVAVG
MEDEIKSFAKDRKLIIEDSKNSKNNIVEVQKAIETLKDEKNAKNVVVDFTEYNPLHNGHKYCMDFGKREGLFISVIPGPLERSGRGIPYLVNRYIRSEMALLAGADLVVEGPPMGIMGSGQYMQCLIKIFSALNGDIIPRGYIEEETMEKVINSINNKNHIKIKPYNISCIETGEKFGEKLEIDNYVIASMSYTIYKLKENFPEWKPKFKFIERIEGISGTKIREGVFNNNFESIKHMLPETTLNVFKSFENNLSEIILKRNEQMVLDTVNNFDLSKYLPENISEKLNEKEYYKSIEEIKECIPRGFSKNNIERTISKLEARIEKETISKYIENYPANLKILKGINNNE
MEDKFANLSLHEKTGKSSIQLNEQTGSDNGSAVKRTSSTSSHYNNINADLHARVKAFQEQRALKRSASVGSNQSEQDKGSSQSPKHIQQIVNKPLPPLPVAGSSKVSQRMSSQVVQASSKSTLKNVLDNQETQNITDVNINIDTTKITATTIGVNTGLPATDITPSVSNTASATHKAQLLNPNRRAPRRPLSTQHPTRPNVAPHKAPAIINTPKQSLSARRAVKLPPGGMSLKMPTKTAQQPQQFAPSPSNKKHIETLSNSKVVEGKRSNPGSLINGVQSTSTSSSTEGPHDTVGTTPRTGNSNNSSNSGSSGGGGLFANFSKYVDIKSGSLNFAGKLSLSSKGIDFSNGSSSRITLDELEFLDELGHGNYGNVSKVLHKPTNVIMATKEVRLELDEAKFRQILMELEVLHKCNSPYIVDFYGAFFIEGAVYMCMEYMDGGSLDKIYDESSEIGGIDEPQLAFIANAVIHGLKELKEQHNIIHRDVKPTNILCSANQGTVKLCDFGVSGNLVASLAKTNIGCQSYMAPERIKSLNPDRATYTVQSDIWSLGLSILEMALGRYPYPPETYDNIFSQLSAIVDGPPPRLPSDKFSSDAQDFVSLCLQKIPERRPTYAALTEHPWLVKYRNQDVHMSEYITERLERRNKILRERGENGLSKNVPALHMGGL
MEDKPLGILRVHVKRGINLAIRDATTSDPYVVITLANQKLKTRVINNNCNPVWNEQLTLSIKDVNDPIRLTVFDKDRFSGDDKMGDAEIDFRPFLEAHQMELDFQKLPNGCAIKRIRPGRTNCLAEESSITWSNGKIMQEMILRLKNVECGEVELMLEWTDGPGCKGLGREGSKKTPWMPTKRLD
MEDQGVLAGFFALSFAFILVILIWAIISYLLTAFALYSMAKNDGATDGVLAFIPFLNSKTWGDLAKDKLPDFLKEEAGWKVFGIYVACFIFNFVPIISLLATAVSIVLSIYLIYAILDRYGTNSILFTIIHVITFSVFLPIHLFIIRNEPVRYKE
MEDVKGKEIIDDAPIDNKVSDEMESEENAIKKKYGGLLPKKIPLISKDHERAFFDSADWALGKQKGQKPKGPLEALRPKLQPTPQQQPRARRMAYSSGETEDTEIDNNEAPDDQACASAVDSTNLKDDGGAKDNIKS
MEEITEGVNNMNLAVDTQKKNRIQVSNTKKPLFFYVNLAKRYMQQYTDVELSALGMAIATVVTVAEILKNNGFAVEKKIMTSTVDIKDDSRGRPVQKAKIEITLAKSEKFDELMAAANEEKEAAEAQEQN
MEEKKIVELEKQVEDYRQFGFVLLSLSIFLFIGLVLPPSYAPQVAAEWLIAGIGGALTFAWLFNRKVVQCQQKLFEEEDQQ
MEEKKSSGMFAVFAALGANVLVAISKFIGFGLSGSAAMLNESIHSVVDCGNQILLLFGDRRSRQASTNLHQFGEARAKYFFSMIVATFLFFGGGVIGVMEAYDKLVHPAHSVENAGIVIGILLIGMAIEGSSLRVAFKEISELNTEKLPIFKFLHESRHSEILVIFAEDLCAIIGLLLALLGTVLTMVTGNPIFDAISGLLIGFLLMAAAIFLTREFYSLIVGERVTDSDLEKILTAFDRPEVERVINVKTVHLGPTEILIAAKIDLVSKLVLEDYEIINQIEAEIRKKISDKKCYIYIEIDEFVQGYVQSSDL
MEEKNGSSEVEIGEKDETKKQSKDLEFLSCMMQPKTADSDPHYIGIRRILLHRKADSGVISRRYDWRCNGKGYVAYRNFISKPRKWENLRTPSLLSSPGNSGRWLPSPSPLSHQFEAESFTSSRDLRSVNQVSSRRASFSSSLSDGDNSYRRGGVEHAYSFVGMHCIFDQCKSSVTVLKFGHMSSDILAYGASDGSLTVCSLLEEPSVLKQLTGHSKDVTDFDFSSNNQYIASSSLDKTIRVWELSRGVCIRVIYGISPQYCIRFHPVNNNFLSAGNANKELTVFNFSTGRIIKKLLFEDEVTSMDHDHTGQIIFCGDGQGTVYSVSMDSHTGSLSRSHRHRTNHKSPVTTVKYRSFSLLASGPVLLTCTQDGNLSFFSVALQIKGYLTLRCSLKLAPRIHRIQASFCPLLSLEKGEYIVAGSEDSNVYFYDLTKPKHTCVNKLQGHRFPVMCVAWNHGENLLASSDFYGVVIVWKRAKTSS
MEEKQPQKTKEPSKEDEPQQKEMPTHLSLGAESKAEAKTPVLVETQTVDNANEKSEKPPENQKKLSDKDTVATKIKAWWRGTLVRRALLHAALSACIIQCWWRLILSKILKKRRQAALEAFSRKEWAAVTLQSQARMWRIRRRYCQVLNAVRIIQAYWRCRSCASRGFIKGQYRVTANQLHLQLEILLDSGPCIVTECIPFSIKE
MEEPEFQAYVGPRPFEQEDKFIFFGRDREARDLLSLVIAHNLVLVYAQSGAGKTSLINAGLIPLLKENRFEVFPVARVKGTPLRNIKTDEISNIYVLNTLTSWAEDEYDVERLTKMKLVDFLNEQERLQDEDGIPLPRAVIFDQFEEIFSLYQDRWKDREGFFEQISAALETDPLLRVVFVIREDFIAQLDPYVELLPERLRTRFHIERLRREAALLAIKEPLRDTGRSFAEGVAEKLVDDLLKIRVETTPGETTEVTGEFIEAVQLQVVCQNLWRELPPDVKQITFHHLKTYGNVEQELYRFYEEAIRTAAATAHIDEESLRRLFGEVLITTMGTRGMVYRAQESTGGIPNTAIDVLESMHLIRAEWRAGARWYELTHDGFIKPILSSNRVFNDELAEKERAEKERIEKERIEKEWAEKEWAEKERLEKERAEKERLEKELRAEKELAESKQLFYKRLAAISFLAILLALVAVFEWHQAKENAEEARASDLNLNSALLQGDPRNLDKSVLLAIESLKIHITSTADHLIRQGLLSMPHRVVILKHYSDVNNVVFSPDGKYVATASNDNTSRLWDVSTGKQIFVLNHTDPVRNVVFSPDGKYVATASADKTAGVWNTTTGEGISVLNHTGRVNNVVFSPDGKYIATASDDNTSRLWDTATGKQIFVLNQTDPVRNVVFSPDGKYIATASADNTSRLWDTTTGKQIFDMKHDGPVNIVVFSPDGKYVATASADKKARLWNATTGKKIFDMKHDSGINTVVFSPDGKYIVTASDDKTAGVWNTTTGKKIFDMKHDGSVNTVVFSPDGKYIATASADNTSRLWDTATGEKIFFLNHYGWVNTVVFSPDGKYVATASADKTAHLWDVSTGKQISYLRHDSGVNNVVFGPDGKYVVTASADKTADVWNTTTGEKIFVLNHTGRVNNAVFSPDGKYIATASADNTSRLWDTTTGKQIFVLNQTDPVRNVVFSPDRKYIATASDDNTSRLWDTATGKQILVLNHDGPVNTVVFSSDGKYIATASDDNTSRLWDTATGEEIFVLNHTDRVNNVVFSPDGKYIATAGDDNTSRLWGTATGEKIFDMKHDGPVNNVVFSPDGKYVATAGYDNTACLWDTATGEKIFVLNHAGRVNTVVFSPDGKYIATASADKARLWNATTGKQISYLRHDSGVNNVVFSPDGKYIATASVDKTARLWTAKLWISDTEDLIDEANNRLTRNLKPEEWKEYMGDKPYHKRFPNLP
